{"source": "paper PMC8549803", "about": "“Dithiolane quartets: thiol-mediated uptake enables cytosolic delivery in deep tissue” (Chemical Science, 2021)", "key": {"[1]": {"test": "Solubility of streptavidin/peptide complexes in water", "type": "physicochemical", "experimental": "However, this interpretation should not be overestimated because the CP50 = 2.5 ± 0.2 μM remained near those of single dithiolane quartets in 19 and 1."}, "HGM cells": {"tested_on": "HGM cells", "test": "2D HC-CAPA (chloroalkane penetration assay), cytosolic delivery in 2D cell culture", "type": "cell-based", "conditions": "4 h; for CP50, half maximal cell-penetration concentration: HGM cells (HeLa stably expressing HaloTag-GFP-Mito), complexes 0 to max 20 μM in Leibovitz's, 37 °C, then HRO 2 5 μM 15 min, high-content fluorescence imaging, Hill analysis of DRCs, duplicates; for Uptake activity in 2D CAPA, in words: HGM cells, up to 20 μM", "experimental": "Cytosolic delivery into 2D cell culture was determined first using the chloroalkane penetration assay (CAPA).[55–57] This assay has been introduced recently by Kritzer et al. as a reliable tool to quantitatively measure cytosolic delivery.[55–57] The CAPA method operates with HGM cells, i.e. HeLa cells that stably express a fusion protein of HaloTag and GFP on mitochondria (Fig. 1c). Chloroalkylated transporters that reach the cytosol will react with these HaloTags, while all unused HaloTags will react with subsequently added chloroalkylated TAMRA 2. The result is decreasing TAMRA fluorescence with increasing uptake of transporters. Automated high-content high-throughput imaging has been introduced to measure TAMRA fluorescence only inside of healthy cells and generate high-precision dose–response curves (DRCs, Fig. 3) while simultaneously reporting on cell viability.[50] The uptake efficiency is reported as CP50 value, that is the transporter concentration needed to inhibit HaloTag labeling with 2 by 50%, determined by the Hill analysis of DRCs. In conventional 2D cell culture, complex 1 afforded CP50 = 3.6 ± 0.3 μM (Fig. 2, 3a, filled circles, Table 1).\nComplex 22 was similarly prepared using 6 µL of peptide 12 (10 mM in DMSO, 3 […]\nComplex 23 was similarly prepared using 4 µL of peptide 13 (10 mM in DMSO, 2 […]\nComplex 24 was similarly prepared using 2 µL each of peptides 12 and 13 (10 mM in DMSO, 1 equivalent each).\nComplex 25 was similarly prepared using 4 µL of peptide 14 (10 mM in DMSO, 2 […]\nComplex 26 was similarly prepared using 2 µL each of peptides 13 and 14 (10 mM in […]\nHeLa cells stably expressing the HaloTag-GFP-Mito fusion protein (HGM): The cells were originally designed by the Chenoweth lab as described in ref. S10. They were cultured using the described procedure in ref. S4.\n3.2.1 General HC-CAPA protocol\nAs in ref. S11, HGM cells were seeded at 8 ×10^4 cells/mL in FluoroBrite DMEM + 10% FBS on μ-Plates 96-well ibiTreat sterile and kept at 37 °C with 5% CO2 overnight. Next day, cells were washed with PBS ([…]) and the media were exchanged to Leibovitz’s (4 × 150 μL/well) using a plate washer, keeping a final volume of 135 μL/well. Then, serial dilutions of the corresponding complexes 1, 15-26 in PBS were prepared in a 96-well V-bottom plate and added to the μ-Plate containing the cells (15 μL/well, 10x final concentration in PBS) to reach a final volume of 150 μL/well (0 to maximum 20 μM). Cells were incubated for 4 h at […]\n37 °C with 5% CO2. After this, cells were washed again and HRO 2 was added (15 μL/well, 50 μM in PBS) to reach a final volume of 150 μL/well (5 μM), except for the control wells, where only PBS was added (15 μL/well). After 15 min of incubation at 37 °C with 5% CO 2, the plate was washed again. Then, Hoechst 33342 was added (15 μL/well, 170 μM in PBS) to reach a final volume of 150 μL/well (17 μM). After 15 min of incubation at 37 °C with 5% CO2, the plate was washed one last time and the cells were kept in clean Leibovitz’s media.\nDuring imaging, samples were kept at 37 °C with 5% CO2. A total of 16 images/well at 40x were recorded, using three channels: blue (excitation filter: 37 7/50 nm, emission filter: 477/60 nm, exposure time: 10 ms), green (excitation filter: 475/34 nm, emission filter: 536/40 nm, exposure time: 20 ms) and red (excitation filter: 531/40 nm, emission filter: 593/40 nm, […]\n(§1) Duplicates were performed for each condition.\nFig. S2 Blue channel recording the Hoechst 33342 localization in the nuclei (left), green channel recording the GFP signal in the mitochondria (middle) and red channel recording the signal from HRO 2 (right) covalently attached to HaloTag protein in the mitochondr ia. Scale […]\n3.2.2. HC-CAPA analysis protocol\nAs in ref. S11, for each cell, the DAPI and GFP channel images were used for the segmentation of the nuclei and whole cell body, respectively. Three successive filters have then been used for the cell selection process: […]"}, "HGM spheroids": {"tested_on": "HGM spheroids", "test": "3D HC-CAPA, cytosolic delivery in multicellular spheroids", "type": "cell-based", "conditions": "for Penetration of HGM spheroids (suppression of emission of CAPA probe 2), in words: 20 μM, 6 h, then 2 for 45 min, cross-sectional CSDM images 80 μm from surface; for SP50, half maximal spheroid-penetration concentration: 3D HC-CAPA, HGM spheroids 350–400 μm, complexes 0 to max 20 μM, 2 or 6 h, 37 °C, then HRO 2 5 μM 45 min, average TAMRA intensity over entire spheroid, Hill analysis of DRCs, duplicates", "experimental": "Spheroids of HGM cells with an average size of 350–400 μm were prepared in cell-repellent U-bottom 96-well plates following standard procedures (Fig. 4a).[1–26] In cross-sectional confocal spinning disc microscopy (CSDM) images taken 80 μm from the surface, GFP emission was homogeneously distributed (Fig. 4b). Similarly the homogeneous cross-sectional TAMRA emission upon addition of 2 was consistent with unhindered passive diffusion of the small, cationic CAPA probe across the spheroid (Fig. 4c, m, red circles, 1c). […] Line-scan analysis of the TAMRA intensity along the cross-section in the CSDM image gave an almost linear decrease (Fig. 4m, green squares). […] Comparison of the line-scan analyses for 20 μM 19 after 2 h and 6 h incubation illustrated how transporter 19 penetrates the spheroids with time from the periphery to the center as expected for operational transcytosis (Fig. 4m, l vs. i). […] At c ∼ SP50, thiol-mediated delivery decreases linearly with increasing depth because the limited amount of transporter 19 provided is gradually consumed by kinetically competing direct translocation and irreversible reaction with the HaloTags on the mitochondria of the cells on the way into the spheroids. […]\nHGM cells were seeded at 5 × 10^3 cells/mL in FluoroBrite DMEM + 10% FBS on NunclonTM SpheraTM U-bottom 96-well sterile μ-Plates and kept at 37 °C with 5% CO2 for 3 days. After the spheroids were formed, the medium was exchanged to Leibovitz’s (6 × 200 μL/well) using a Biotek MultiFloTM FX plate washer, keeping a final volume of 135 μL/well.\nThen, serial dilutions of the corresponding complexes 18-20 in PBS were prepared in a 96-well V-bottom plate and added to the μ-Plate containing the spheroids (15 μL/well, 10x final concentration in PBS) to reach a final volume of 150 μL/well (0 to maximum 20 μM). Cells were incubated for 2 or 6 h at 37 °C with 5% CO2. After this, cells were washed again and HRO 2 was added (15 μL/well, 50 μM in PBS) to reach a final volume of 150 μL/well (5 μM), except for the control wells, where only PBS was added (15 μL/well). After 45 min of incubation at 37 °C with 5% CO2, the plate was washed again. Then, the plate was kept for 1 h at 37 °C with 5% CO2 and was washed again. During imaging, samples were kept at 37 °C with 5% CO2. A z-stack of 19 images/well (10 μm per step) at 10x were recorded, using two channels: green (excitation filter: 475/34 nm, emission filter: 536/40 nm, exposure time: 200 ms) and red (excitation filter: 531/40 nm, emission filter: 593/40 nm, exposure time: 200 ms), […]\nas §1\nFig. S4 TL channel (left), Green channel recording the GFP signal in the mitochondria (middle left) and red channel recording the signal from HRO 2 (middle right) covalently attached to HaloTag protein in the mitochondria. Merged images showing colocalization of G FP and HRO 2 signals (right). Images are 2D projections of all planes. Scale bar: 100 μm.\n3.3.2 3D HC-CAPA analysis protocol\nFor each spheroid, the TL and green channel images were used for the segmentation of the object. A gaussian filter was applied to blur the image and allow the creation of the spheroid […]\nFig. S5 Green channel recording the GFP signal in the mitochondria (left), applied Gaussian filter (middle) to generate the spheroid mask in white (right). Images are 2D projections of all planes. Scale bar: 100 μm. […]\n3.3.2 3D HC-CAPA results for uptake quantification […]"}, "[2]": {"conditions": "streptavidin/peptide complex in water"}}, "note": "Entries after “also recorded” stand apart in the source; their conditions may differ. Read-outs that look alike come from different tables or passages of the source."}
{"substance": "EEEEEE [compound 23, streptavidin 3/peptide 13 (EEEEEE) 1 : 2 complex]", "values": [{"measurement": "Solubility of complex in water, in words", "setting": "[1]; [2]", "result": "soluble"}, {"measurement": "CP50, half maximal cell-penetration concentration", "setting": "HGM cells", "result": ">20", "unit": "µM"}, {"measurement": "Uptake activity in 2D CAPA, in words", "setting": "HGM cells", "result": "inactive"}]}
{"substance": "EEEUUU [compound 19, 1 : 3 streptavidin 3/peptide 9 (EEEUUU) complex]", "values": [{"measurement": "CP50, half maximal cell-penetration concentration", "setting": "HGM cells", "result": "3.8 ± 0.2", "unit": "µM"}, {"measurement": "Uptake activity in 2D CAPA, in words", "setting": "HGM cells", "result": "preserved activity"}, {"measurement": "Penetration of HGM spheroids (suppression of emission of CAPA probe 2), in words", "setting": "HGM spheroids", "result": "almost complete disappearance of all fluorescence; also recorded: suppressed fluorescence throughout the spheroid"}, {"measurement": "SP50, half maximal spheroid-penetration concentration", "setting": "HGM spheroids", "result": "5.3 ± 0.9", "unit": "µM"}]}
{"substance": "EEUUUU [compound 21, 1 : 3 streptavidin 3/peptide 11 (EEUUUU) complex]", "values": [{"measurement": "CP50, half maximal cell-penetration concentration", "setting": "HGM cells", "result": "2.5 ± 0.2", "unit": "µM"}, {"measurement": "Uptake activity in 2D CAPA, in words", "setting": "HGM cells", "result": "most active of all transporters"}]}
{"substance": "EUEUEU [compound 1]", "values": [{"measurement": "CP50, half maximal cell-penetration concentration", "setting": "HGM cells", "result": "3.6 ± 0.3", "unit": "µM"}, {"measurement": "Penetration of HGM spheroids (suppression of emission of CAPA probe 2), in words", "setting": "HGM spheroids", "result": "suppressed fluorescence throughout the spheroid"}]}
{"substance": "EUEUeU [compound 16, 1 : 3 streptavidin 3/peptide 6 (EUEUeU) complex]", "values": [{"measurement": "CP50, half maximal cell-penetration concentration", "setting": "HGM cells", "result": "16 ± 2", "unit": "µM"}]}
{"substance": "EUUUUU [streptavidin complex of EUUUUU peptide, insoluble, not finalized]", "values": [{"measurement": "Solubility of complex in water, in words", "setting": "[1]", "result": "insoluble in water"}]}
{"substance": "KKKKKK [compound 25, streptavidin 3/peptide 14 (KKKKKK) 1 : 2 complex, isostructural CPP control]", "values": [{"measurement": "CP50, half maximal cell-penetration concentration", "setting": "HGM cells", "result": "2.8 ± 0.3", "unit": "µM"}, {"measurement": "Uptake activity in 2D CAPA, in words", "setting": "HGM cells", "result": "in the range of the best dithiolane quartets"}, {"measurement": "Penetration of HGM spheroids (suppression of emission of CAPA probe 2), in words", "setting": "HGM spheroids", "result": "failed to penetrate HGM spheroids"}]}
{"substance": "UUUEEE [compound 20, 1 : 3 streptavidin 3/peptide 10 (UUUEEE) complex]", "values": [{"measurement": "CP50, half maximal cell-penetration concentration", "setting": "HGM cells", "result": "> 20", "unit": "µM"}, {"measurement": "Uptake activity in 2D CAPA, in words", "setting": "HGM cells", "result": "inactive"}, {"measurement": "SP50, half maximal spheroid-penetration concentration", "setting": "HGM spheroids", "result": "17 ± 6", "unit": "µM"}]}
{"substance": "UUUUUU [compound 22]", "values": [{"measurement": "Solubility of complex in water, in words", "setting": "[1]; [2]", "result": "insoluble in water"}, {"measurement": "CP50, half maximal cell-penetration concentration", "setting": "HGM cells", "result": ">20", "unit": "µM"}]}
